Reference: patent US20260055150A1 (REGENTS OF THE UNIVERSITY OF MICHIGAN, published 2026)
Values belong to the binder of their own block, whether it stands above or below them. Where no end group is shown, it is not given here.

Tests used:
[1] = target: T1, epidermal growth factor receptor (EGFR) on patient-derived organoid cells (human, UniProt P00533 25-1210); assay: in vivo wide-field fluorescence endoscopy of PDO implanted in mouse colon, peptide given intravenously
T1 construct: whole, on cells
Method: Cultures were harvested from Matrigel in cold DPBS, triturated 30× with a 1 mL pipette tip, and centrifuged at 300 g for 3 min at 4° C. […] The colonoid fragments were further dissociated by 20× pipetting with a 1 mL pipette tip. […] Slow centrifugation at 100 g was performed to reduce the single cell content. The cell aggregates were resuspended in cold DPBS supplemented with 5% Matrigel and 10 µM Y27632. 1.8×10⁶ cell aggregates in 200 μL were transplanted per mouse as described previously. The implants were monitored over time using a rigid wide-field endoscope and a flexible fiber-coupled endomicroscope to localize the PDO and visualize EGFR expression with sub-cellular resolution.
Organoids grown in vitro (FIG. 17A) were implanted on day 7 post-DSS treatment. For implantation, in vitro grown PDOs were disrupted into smaller aggregates in 200 μL volume and were implanted intrarectally in anesthetized mice. The rectum was closed immediately using tissue glue. After several weeks to establish viability, the implanted PDOs were imaged using a rigid wide-field endoscope. The fluorescently-labeled peptide QRH*-Cy5 was administered intravenously at a dose of 300 μM in 200 μL of PBS.

[2] = target: T2, claudin-1 on colonic patient-derived organoid cells (human, UniProt O95832 1-211); assay: ex vivo immunofluorescence staining of resected tissue
T2 construct: whole, on cells; also called CLN1
T2 sequence (looked up): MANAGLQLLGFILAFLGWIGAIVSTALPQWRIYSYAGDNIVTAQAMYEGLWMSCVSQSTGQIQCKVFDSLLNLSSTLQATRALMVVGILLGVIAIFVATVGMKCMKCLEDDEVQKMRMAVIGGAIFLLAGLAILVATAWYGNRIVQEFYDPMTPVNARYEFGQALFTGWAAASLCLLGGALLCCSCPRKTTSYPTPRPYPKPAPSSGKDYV
From the text: After completion of in vivo imaging, the results were validated using IF.

binding result [1]: binds
Binder: QRHKPRE (also: Cy5 label, attachment not given here, also called Cy5QRH*-Cy5) [QRH*-Cy5 (QRHKPRE labeled with Cy5)]

binding result [2]: binds
B1: RTS*-Cy5.5 (Cy5.5-labeled peptide RTSPSSR) (peptide)
peptide: RTSPSSR
modifications: also: Cy5.5 label, attachment not given here
notes: also called peptide specific for claudin-1
